In article PMC10921019:

Key:
[1] = molecular target: Parkin WT (pSer 65) (human) (UniProt O60260)
[2] = molecular target: Human wild type Parkin 1-465 (human) (UniProt O60260)
Parkin [F146A] (human) = Parkin [F146A] (human) (UniProt O60260)
Parkin [W403A] (human) = Parkin [W403A] (human) (UniProt O60260)

Ub-K formation %, MALDI-TOF discharge assay of p-Parkin without or with p-Ub-His (100, 500, 2500 nM) (% Ub-K formation) [1]: 78 | residual Ub % after 10 min, MALDI-TOF auto-ubiquitylation assay of p-Parkin without or with p-Ub-His (100, 500, 2500 nM) (% residual Ub) [1]: 31.5 | EC50 of p-Ub-His for the activation of Parkin, MALDI-TOF auto-ubiquitylation assay (500 nM Parkin, 0.05-5 μM p-Ub-His, 30 min) [2]: 2 µM | EC50 of p-Ub-His for the activation of Parkin, MALDI-TOF discharge assay (500 nM Parkin, 0.05-5 μM p-Ub-His, 30 min) [2]: 1.4 µM | EC50 of p-Ub-His for the activation of Parkin, MALDI-TOF auto-ubiquitylation assay (500 nM Parkin, 0.05-5 μM p-Ub-His, 30 min) (Parkin [F146A] (human)): 0.4 µM | EC50 of p-Ub-His for the activation of Parkin, MALDI-TOF discharge assay (500 nM Parkin, 0.05-5 μM p-Ub-His, 30 min) (Parkin [F146A] (human)): 0.6 µM | EC50 of p-Ub-His for the activation of Parkin, MALDI-TOF auto-ubiquitylation assay (500 nM Parkin, 0.05-5 μM p-Ub-His, 30 min) (Parkin [W403A] (human)): 0.2 µM | EC50 of p-Ub-His for the activation of Parkin, MALDI-TOF discharge assay (500 nM Parkin, 0.05-5 μM p-Ub-His, 30 min) (Parkin [W403A] (human)): 0.5 µM
Substance: p-Ubiquitin-His (pSer65-ubiquitin-6His) (natural protein)
